# Measured values taken from US20240279288A1, “APPLICATION OF PLANT JAZ PROTEINS AND DERIVED POLYPEPTIDES IN PREVENTION AND TREATMENT OF HUMAN AND ANIMAL TUMORS” (ANYANG INSTITUTE OF SINO-COTTON INDUSTRY INNOVATION, priority 2021, published 2024).
# T1: NMYC (Homo sapiens, UniProt P04198)
# T1 construct: with the full length of c-Myc and NMYC, respectively; expressed in transfected cells; host or cells: yeast Y2HGold
# T1 sequence (P04198 1-464): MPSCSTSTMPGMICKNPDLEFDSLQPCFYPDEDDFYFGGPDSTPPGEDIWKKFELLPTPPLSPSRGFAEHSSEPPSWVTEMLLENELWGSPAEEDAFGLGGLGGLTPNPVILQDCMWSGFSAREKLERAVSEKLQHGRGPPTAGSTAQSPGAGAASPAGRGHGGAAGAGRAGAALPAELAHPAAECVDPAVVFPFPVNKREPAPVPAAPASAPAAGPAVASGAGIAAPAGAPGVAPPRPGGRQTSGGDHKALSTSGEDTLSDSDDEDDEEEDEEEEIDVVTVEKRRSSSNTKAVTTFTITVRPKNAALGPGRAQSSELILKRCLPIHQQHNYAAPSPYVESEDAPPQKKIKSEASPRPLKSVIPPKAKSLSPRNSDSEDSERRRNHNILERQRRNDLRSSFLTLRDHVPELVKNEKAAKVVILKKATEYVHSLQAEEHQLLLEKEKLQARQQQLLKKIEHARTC
# Key:
# NMYC = target: T1, NMYC; assay: CO-IP with NMYC in HEK293 cells; format: binding
# Protocol: (§1) Steps of method of CO-IP experiment: Non-denaturing lysate was added to 293T cell culture plate (Pricella, Cat. No.: CL-0005), and the cells were completely lysed at 4° C. The lysate was centrifuged at 12,000 rpm for 10 min and the supernatant was collected. The corresponding antibody was added to the obtained non-denatured protein solution, which was incubated overnight at 4° C. Pierce™ protein A/G magnetic agarose (Thermo Fisher Scientific, Inc.) were washed with lysis buffer, followed by addition pre-treated beads to the cell lysate, and incubation at room temperature for 2 hours. The mixture was centrifuged at 4° C., 2,500 rpm for 5 min with supernatant removed, and the agarose beads were washed 5 times with 1 ml of lysis buffer. An appropriate amount of protein loading buffer was added to the pellet, and the sample was incubated in water bath at 100° C. for 10 min. The band of interest was detected by Western blotting.
# Immunoprecipitation method (method of the experiment as Example 3) was used.
# [1] = test system: normal breast epithelial cells MCF10A; assay: Apoptosis detection (Annexin V-FITC/PI), MCF10A; format: cell-based; details: 0.691 μM, 24 h, vs PBS
# Protocol: Apoptosis detection: cells were collected in 1.5 EP tubes and centrifuged at 300 g for 5 min, with the supernatant discarded, followed by collecting the cells, washing with PBS and resuspending. 1×10^5 resuspended cells were taken and centrifuged at 300 g for 5 min, with the supernatant discarded. The cells were washed with PBS, resuspended by adding 500 μl of diluted 1×Annexin V Binding Buffer working solution, and then a staining solution of 5 μL of Annexin V-FITC and 5 μL of propidium iodide (PI) were added and mixed well by vortex, followed by incubation at room temperature in the dark for 15-20 min, and detection on the instrument. Specifically, the Annexin V-FITC/PI fluorescent dual staining cell apoptosis detection kit (Wuhan Pricella Life Science & Technology Co., Ltd., Cat. No.: P-CA-201) was used.
# GhHDA6 = assay: CO-IP experiment with GhHDA6; format: binding, cotton
# Protocol: as §1
# GhNINJA = assay: Yeast two hybrid with GhNINJA; format: binding, cotton
# Protocol: The study on Arabidopsis had shown that the inhibition of JAZ protein on JA signaling was mainly achieved by inhibiting the transcription factor function of MYC, which had been experimentally verified by us in cotton. Based on the phylogenetic tree of Arabidopsis and cotton JAZs, we screened 6 cotton JAZs (GhJAZ1, GhJAZ7, GhJAZ9, GhJAZ10, GhJAZ11 and GhJAZ31), which were analyzed with GhMYC2, GhNINJA, GhTPL, GhHDA6, and GhCOI1 for yeast two hybrid. The amino acid sequence of GhJAZ1 was set forth in SEQ ID No. 4, and the corresponding encoding gene sequence was set forth in SEQ ID No. 39; the amino acid sequence of GhJAZ7 was set forth in SEQ ID No. 7, and the corresponding encoding gene sequence was set forth in SEQ ID No. 42; the amino acid sequence of GhJAZ9 was set forth in SEQ ID No. 2, and the corresponding encoding gene sequence was set forth in SEQ ID No. 37; the amino acid sequence of GhJAZ10 was set forth in SEQ ID No. 3, and the corresponding encoding gene sequence was set forth in SEQ ID No. 38; the amino acid sequence of GhJAZ11 was set forth in SEQ ID No. 5, and the corresponding encoding gene sequence was set forth in SEQ ID No. 40; and the amino acid sequence of GhJAZ31 was set forth in SEQ ID No. 9, and the corresponding encoding gene sequence was set forth in SEQ ID No. 44. […]
# c-Myc = c-Myc (Homo sapiens, UniProt P01106); assay: Bimolecular fluorescence complementary experiment with c-Myc; format: binding; parameters: with the full length of c-Myc and NMYC, respectively; expressed in transfected cells; host or cells: yeast Y2HGold; details: bimolecular fluorescence complementation, YFP signal in the nucleus of tobacco
# Description: GhJAZ1 (SEQ ID No. 39) was subcloned into pUC-SPYNE vector (Song, Yun, et al. “BIN2 negatively regulates plant defense against Verticillium dahliae in Arabidopsis and cotton.” Plant Biotechnology Journal (2021)) between the BamHI and XbaiI cleavage sites by the bimolecular fluorescence complementary experiment to construct pUC-SPYNE-GhJAZ1. c-Myc (NCBI accession number: NM_002467.6) was subcloned into pUC-SPYCE vector (Song, Yun, et al. “BIN2 negatively regulates plant defense against Verticillium dahliae in Arabidopsis and cotton.” Plant Biotechnology Journal (2021)) between BamHI and XbaiI cleavage sites to construct pUC-SPYCE-c-Myc. […] Testing of inhibitory effect of GhJAZ1 protein on tumor cells
# GhNINJA, sequence (as listed by the source): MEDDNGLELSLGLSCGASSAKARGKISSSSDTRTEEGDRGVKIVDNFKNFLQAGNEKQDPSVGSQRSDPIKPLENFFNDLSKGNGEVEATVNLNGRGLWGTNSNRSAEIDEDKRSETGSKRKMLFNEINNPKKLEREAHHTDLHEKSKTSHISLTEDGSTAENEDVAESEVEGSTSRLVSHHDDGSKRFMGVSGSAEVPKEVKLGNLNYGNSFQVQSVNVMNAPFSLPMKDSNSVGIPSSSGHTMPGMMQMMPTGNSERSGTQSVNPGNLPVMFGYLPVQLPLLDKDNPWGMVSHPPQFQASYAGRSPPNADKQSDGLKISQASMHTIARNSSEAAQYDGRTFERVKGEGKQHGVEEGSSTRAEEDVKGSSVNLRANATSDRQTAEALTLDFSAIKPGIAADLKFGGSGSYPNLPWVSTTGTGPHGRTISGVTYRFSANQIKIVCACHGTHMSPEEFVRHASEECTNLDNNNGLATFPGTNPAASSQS
# c-Myc, sequence (P01106 whole entry): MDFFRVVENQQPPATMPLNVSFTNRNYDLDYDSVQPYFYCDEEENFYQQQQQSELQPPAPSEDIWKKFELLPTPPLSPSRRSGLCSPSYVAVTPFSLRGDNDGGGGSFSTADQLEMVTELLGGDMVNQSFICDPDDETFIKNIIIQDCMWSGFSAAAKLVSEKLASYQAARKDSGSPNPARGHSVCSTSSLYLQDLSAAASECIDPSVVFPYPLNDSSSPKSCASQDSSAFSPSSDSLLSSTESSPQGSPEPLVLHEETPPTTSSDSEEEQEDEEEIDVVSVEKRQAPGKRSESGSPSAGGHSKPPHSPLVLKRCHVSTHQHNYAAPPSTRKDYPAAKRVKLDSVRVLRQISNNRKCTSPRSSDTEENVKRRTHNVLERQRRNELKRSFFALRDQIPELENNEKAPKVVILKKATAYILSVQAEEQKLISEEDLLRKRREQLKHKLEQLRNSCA
# GhHDA6, sequence (as listed by the source): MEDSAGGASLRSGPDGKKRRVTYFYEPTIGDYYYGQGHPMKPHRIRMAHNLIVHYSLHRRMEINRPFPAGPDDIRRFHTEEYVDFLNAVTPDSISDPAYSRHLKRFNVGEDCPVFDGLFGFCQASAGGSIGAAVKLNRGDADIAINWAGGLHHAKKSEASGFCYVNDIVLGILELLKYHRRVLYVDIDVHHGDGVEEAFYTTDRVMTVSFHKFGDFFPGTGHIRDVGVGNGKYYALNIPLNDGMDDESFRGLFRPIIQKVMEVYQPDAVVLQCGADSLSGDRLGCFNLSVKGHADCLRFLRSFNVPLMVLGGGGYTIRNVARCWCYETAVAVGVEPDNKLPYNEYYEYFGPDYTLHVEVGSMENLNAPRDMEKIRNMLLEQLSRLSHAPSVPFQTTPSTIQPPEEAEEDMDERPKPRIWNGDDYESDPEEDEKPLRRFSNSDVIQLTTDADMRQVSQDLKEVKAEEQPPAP
molecule,measurement,setting,value
"GhJAZ1: cotton JAZ1 protein, gene number Gh_A05G0260, sequence SEQ ID No. 4; prokaryotically expressed with His tag, about 30 KD (protein, His tag, prokaryotically expressed with His tag, about 30 KD) MSSCSESTAMKPARSPEKPSFAQTCNLLSQYLKEKGSFGDLSLGMTCNVEANGTPVVPPPTMNLFPLNDKSDDVCGRNGGNPKNLTSMDLFPQQAGLASKDDSPNKLEPQTAPMTIFYGGQVIVFNDFPANKAKEIMLLASNSSSQSNNSFNPIPFTSSIARSPIESSIGVPPTSKPVHPAQRAVPGDLPIARRASLHRFLEKRKDRITAKAPYQINNSAAAPSLSGDNKSWLGLAAQSP",interaction with NMYC,NMYC,interacted
same,effect on apoptosis of normal cells (MCF10A),[1],no significant effect
same,interaction with GhHDA6,GhHDA6,interacts
same,interaction with GhNINJA,GhNINJA,interacted
same,interaction with c-Myc,c-Myc,interaction
